{"source": "paper doi:10.1101/2023.08.01.551421", "about": "(bioRxiv, 2023)", "key": {"[1]": {"biological_target": "GBP1 Δ207-223 variant, farnesylated (human) (UniProt P32455)", "test": "cross-linking"}, "[2]": {"biological_target": "GBP1 Δ207-223 variant, non-farnesylated (human) (UniProt P32455)", "test": "cross-linking"}, "[3]": {"biological_target": "GBP1 Δ207-223 variant, non-farnesylated (human) (UniProt P32455)"}}}
{"substance": "GBP1 Δ207-223 variant, farnesylated (from UniProt P32455) (natural protein)", "values": [{"measurement": "stoichiometry N", "setting": "[1]", "result": 2}]}
{"substance": "GBP1 Δ207-223 variant, non-farnesylated (from UniProt P32455 1-592) (natural protein)", "values": [{"measurement": "stoichiometry N", "setting": "[2]", "result": 2}, {"measurement": "catalytic GTPase activity against wild-type (GTP hydrolysis assay)", "setting": "[3]", "result": 1.7, "unit": "fold"}]}
